The values that follow come from patent US20120129757A1, “COMPOSITIONS AND METHODS FOR PROMOTING VASCULAR BARRIER FUNCTION AND TREATING PULONARY FIBROSIS” (priority 2008, published 2012).

“Also recorded” adds a separate entry of the source.

One assay deals with BL/6 mice. The class given is in vivo, mouse.
In another assay the test system is endothelial cell. Briefly: VEGF mediated endothelial cell migration. The class given is cell-based. Particulars: Slit constructs 2 nM.
In assay [1] the test system is C57BL/6 mice. The class given is in vivo, mouse.
Assay [2] concerns H5N1 virus (Influenza A, Duck/MN/1525/81). The class given is in vivo, BALB/c mice.
The subject of assay [3] is HMVEC-lung. Briefly: Subcellular (membrane) fractionation and immunoblotting. The class given is cell-based, human. Here is the method:
Subcellular fractionation. HMVEC-lung were treated with Slit2N or Mock in 0.1% FBS EBM-2 for 1.5 hours. Cells were then washed twice with ice-cold PBS containing Ca^2+/Mg^2+, once with HLB buffer (10 mM Tris-HCl PH7.4, 5 mM KCl, 1 mM MgCl2), and collected in HLB buffer supplemented with protease inhibitors (Roche), phosphatase inhibitors (Sigma) and 1 mM DTT. Cells were then dounce-homogenized (20 strokes). The homogenate was centrifuged at 400 g for 10 minutes at 4° C. to pellet cell debris. The resulting supernatant was centrifuged again at 16,000 g for 30 minutes at 4° C. The pellet was washed once with HLB and resuspended in RIPA buffer for 30 minutes at 4° C. The resuspended pellet was centrifuged (16,000 g/15 min at 4° C.), and the resulting supernatant was saved as soluble membrane fraction. To obtain the total cell lysate an aliquot was saved prior to dounce homogenization. RIPA buffer was added to this aliquot and centrifuged at 13,000 g for 10 minutes at 4° C. The supernatant was saved and used as total cell lysate. Antibodies to VE-cadherin were obtained from Cell Signaling, and p120-catenin and β-catenin from BD biosciences.
In general terms: In western blotting, separated proteins are transferred to a membrane and probed.

Assay [4] deals with VE-cadherin/p120-catenin interaction. Briefly: Immunoprecipitation of VE-cadherin, immunoblot for p120-catenin. Conditions: HMVEC-lung, 10 ng/mL IL-1β 10 minutes. The class given is cell-based, human. The procedure:
Immunoprecipitation. HMVEC-lung were treated with Slit2N or Mock in 0.1% FBS EBM-2 for 30 minutes. Cells were then stimulated with 10 ng/mL IL-1β for 10 minutes. HMVEC-lung were then washed with ice-cold PBS and lysed with ice-cold lysis buffer (10 mM Tris-HCl pH7.4, 50 mM NaCl, 1% NP-40 and 10% glycerol) supplemented with protease inhibitors, phosphatase inhibitors and 1 mM DTT. Cell lysates were incubated on ice for 30 min and centrifuged at 13,000 g for 15 minutes to pellet cell debris. Protein concentrations were determined by BCA assay (PIERCE) and 0.5 mg lysate were incubated with 8 μg of VE-cadherin antibody (Cell Signaling) and protein A/G sepharose (Santa Cruz) for 1 hour at 4° C. Complexes were washed three times with lysis buffer. The immunoprecipitates were subjected to Western blot analysis.

Another assay concerns VE-cadherin. Briefly: VE-cadherin internalization assay. The class given is cell-based, human. Conditions: HMVEC-lung, 10 ng/ml IL-1β 1 hour, 10 nM Slit2N. The procedure: Internalization assay. VE-cadherin internalization was performed as described Xiao, K., J. Garner, K. M. Buckley, P. A. Vincent, C. M. Chiasson, E. Dejana, V. Faundez, and A. P. Kowalczyk. 2005. p120-Catenin regulates clathrin-dependent endocytosis of VE-cadherin. Mol Biol Cell 16:5141-5151. In brief, HMVEC-lung were seeded onto chamber slides and cultured for 72 hours. The media was then removed and the cells labeled for 30 minutes at 4° C. with anti-VE-cadherin antibody (clone BV6, RDI Fitzgerald). Cells were then pre-treated with Slit2N or Mock for 30 minutes. Excess antibody was removed by washing twice on ice with ice-cold media. Chamber slides were moved to 37° C. and incubated for 1 hour with 10 ng/ml IL-1β and 0.6 mM primaquine in the presence of 10 nM Slit2N or Mock. Cells were acid-washed to strip the surface-bound VE-cadherin. Monolayers were washed, fixed, and permeablized. Internalized VE-cadherin antibody was detected with Alexa 488-conjugated donkey anti-mouse IgG (Molecular Probes). Images are representative of four independent experiments.

The next assay deals with primary human PMNs. Briefly: Neutrophil migration to fMLP, primary hPMNs. The class given is cell-based. Particulars: fMLP 10 μM, 2 h. The procedure:
Neutrophil migration. HL-60 cells were grown under standard conditions with RPMI-1640 media supplemented with 10% FBS and 1% pen/step. Cells induced with 1.2% dimethyl sulphoxide (DMSO) were obtained by seeding HL-60 cells at 3×10^6 per mL in growth media and culturing for 4 6 days (Collins, S. J., F. W. Ruscetti, R. E. Gallagher, and R. C. Gallo. 1978. Terminal differentiation of human promyelocytic leukemia cells induced by dimethyl sulfoxide and other polar compounds. Proc Natl Acad Sci USA 75:2458-2462). hPMNs were isolated from healthy adult donor whole blood with ACD using techniques described in Zimmerman, G. A., T. M. McIntyre, and S. M. Prescott. 1985. Thrombin stimulates the adherence of neutrophils to human endothelial cells in vitro. J Clin Invest 76:2235-2246. The leukocyte chemoattractant fMLP (10 μM) along with Slit2 or Mock was placed in the lower wells of a 48-well chemotaxis chamber (Neuroprobe). A fibronectin coated (over night at 4° C.) polycarbonate membrane (Neuroprobe, 5 μm) was placed between the chemoattractant and the cells. HL-60 cells induced with DMSO or hPMNs (50 μl, 50,000 cells) were added to the upper wells. […] Migrated cells in 5 high power fields were counted and migration expressed as the percent of cells migrated compared to cells migrated towards fMLP in the absence of Slit2 or Mock.

For assay [5], the system named is HMVEC-lung. Briefly: Immunofluorescence for VE-cadherin and p120-catenin after IL-1β stimulation. Particulars: 10 ng/mL IL-1β 3 hours, Slit2N pre-treatment 30 minutes. The class given is cell-based, human. Here is the method: Immunofluorescence. Immunofluorescence was performed as described in Jones, C. […] 2008. Cells were pre-treated with Slit2N or Mock for 30 minutes followed by stimulation with 10 ng/mL IL-1β for 3 hours. Primary antibodies to VE-cadherin (BD biosciences) or p120-catenin (Santa Cruz) were applied at 4° C. overnight. Images are representative of three independent experiments.

The test system of assay [6] is C57BL/6 mice. The class given is in vivo, mouse. The source holds these as a separate data set.
Where [7] appears, read: 20 μg VE-cadherin blocking antibody (BV13) IV, LPS IT.
Where [8] appears, read: Robo4+/+ mice, 24 hours after LPS, dose-dependent.
Where [9] appears, read: Slit2N vs Mock, membrane fraction.

Consider `COc1nc(-c2ccc3c(c2)OCO3)n(-c2ccc(NC(=O)CSc3ccccc3)cc2)n1` [SecinH3, reference compound], for which, in the assay on BL/6 mice (BL/6 mice, 0.05 U Bleomycin intranasal, 100 uL of 30 uM SecinH3 i.p. twice a day, day 11), the “Bleomycin-induced fibrosis (Sircol collagen assay)” value is “inhibits”.

B1: Slit2-D1: Recombinant Slit2 construct, 40 kD, SEQ ID NO: 7 (protein, listed as Homo sapiens)
chain: ILNKVAPQACPAQCSCSGSTVDCHGLALRSVPRNIPRNTERLDLNGNNITRITKTDFAGLRHLRVLQLMENKISTIERGAFQDLKELERLRLNRNHLQLFPELLFLGTAKLYRLDLSENQIQAIPRKAFRGAVDIKNLQLDYNQISCIEDGAFRALRDLEVLTLNNNNITRLSVASFNHMPKLRTFRLHSNNLYCDCHLAWLSDWLRQRPRVGLYTQCMGPSHLRGHNVAEVQKREFVCS
As for B1, the “Inhibition of VEGF mediated endothelial cell migration” value in the assay on endothelial cell is given as “active”.

B2: Slit2N: N-terminal active fragment of Slit2 released by proteolytic cleavage; 150 kD recombinant protein, SEQ ID NO: 4 (protein, listed as Homo sapiens)
chain: QACPAQCSCSGSTVDCHGLALRSVPRNIPRNTERLDLNGNNITRITKTDFAGLRHLRVLQLMENKISTIERGAFQDLKELERLRLNRNHLQLFPELLFLGTAKLYRLDLSENQIQAIPRKAFRGAVDIKNLQLDYNQISCIEDGAFRALRDLEVLTLNNNNITRLSVASFNHMPKLRTFRLHSNNLYCDCHLAWLSDWLRQRPRVGLYTQCMGPSHLRGHNVAEVQKREFVCSDEEEGHQSFMAPSCSVLHCPAACTCSNNIVDCRGKGLTEIPTNLPETITEIRLEQNTIKVIPPGAFSPYKKLRRIDLSNNQISELAPDAFQGLRSLNSLVLYGNKITELPKSLFEGLFSLQLLLLNANKINCLRVDAFQDLHNLNLLSLYDNKLQTIAKGTFSPLRAIQTMHLAQNPFICDCHLKWLADYLHTNPIETSGARCTSPRRLANKRIGQIKSKKFRCSGTEDYRSKLSGDCFADLACPEKCRCEGTTVDCSNQKLNKIPEHIPQYTAELRLNNNEFTVLEATGIFKKLPQLRKINFSNNKITDIEEGAFEGASGVNEILLTSNRLENVQHKMFKGLESLKTLMLRSNRITCVGNDSFIGLSSVRLLSLYDNQITTVAPGAFDTLHSLSTLNLLANPFNCNCYLAWLGEWLRKKRIVTGNPRCQKPYFLKEIPIQDVAIQDFTCDDGNDDNSCSPLSRCPTECTCLDTVVRCSNKGLKVLPKGIPRDVTELYLDGNQFTLVPKELSNYKHLTLIDLSNNRISTLSNQSFSNMTQLLTLILSYNRLRCIPPRTFDGLKSLRLLSLHGNDISVVPEGAFNDLSALSHLAIGANPLYCDCNMQWLSDWVKSEYKEPGIARCAGPGEMADKLLLTTPSKKFTCQGPVDVNILAKCNPCLSNPCKNDGTCNSDPVDFYRCTCPYGFKGQDCDVPIHACISNPCKHGGTCHLKEGEEDGFWCICADGFEGENCEVNVDDCEDNDCENNSTCVDGINNYTCLCPPEYTGELCEEKLDFCAQDLNPCQHDSKCILTPKGFKCDCTPGYVGEHCDIDFDDCQDNKCKNGAHCTDAVNGYTCICPEGYSGLFCEFSPPMVLPRT
Turning to B2, in the assay with C57BL/6 mice [1] (setting [7]), the “inflammatory cell infiltration in BALF in the presence of a VE-cadherin blocking antibody” value is on record as “not” and the “protein exudates in BALF in the presence of a VE-cadherin blocking antibody” value is recorded as “not”. In the assay on C57BL/6 mice [1] (20 μg control IgG IV, LPS IT), the “inflammatory cell infiltration in BALF in the presence of a control IgG antibody” value was “reduced” and the “protein exudates in BALF in the presence of a control IgG antibody” value is on record as “reduced”. The “vascular leak in the lungs (Evans Blue Albumin)” value with C57BL/6 mice [1] (LPS treated Robo4+/+ mice, 10 μg LPS IT, 3.5 μg Slit2N IV) is recorded as “significantly reduces”. In the assay on C57BL/6 mice [1] (LPS treated Robo4AP/AP mice), the “effect on vascular leak in the lungs (Evans Blue Albumin), Robo4-null mice” value is recorded as “lost”. The “LPS-induced lung inflammation / ALI by histological examination (H&E, quantitative histology)” value in the assay on C57BL/6 mice [1] (Robo4+/+ mice) was “reducing; also recorded: reduces”. Also, in the assay on C57BL/6 mice [1] (setting [8]), the “inflammatory cell accumulation in BALF” value is on record as “reduced” and the “protein exudates in BALF” value is reported as “reduced”. Also, in the assay with C57BL/6 mice [1] (Robo4AP/AP mice), the “inhibition of leukocyte accumulation in BALF, Robo4-null mice” value is “lost” and the “inhibition of protein accumulation in BALF, Robo4-null mice” value is on record as “lost”. For the same molecule, in [2] (6 days after infection, compared to mock treated mice), the “lung pathology (H&E)” value is on record as “decreased in severity”. Further, in assay [2] (6 days post-infection), the “level of inflammatory cytokine release in lung homogenates” value is “does not significantly reduce” and the “lung viral titers (viral load)” value is “did not alter”. The “mortality after H5N1 infection” value in assay [2] (21 days, 1.56 μg IV daily for 5 days) is “reduced”. In addition, the “VE-cadherin levels at the cell surface junctions” value with HMVEC-lung [3] (Slit2N vs Mock 1.5 hours, membrane fraction and immunofluorescence) was “significantly increased”. Moreover, in the assay with HMVEC-lung [3] (setting [9]), the “cell surface p120-catenin expression” value was “increased” and the “other junction or catenin family members (β-catenin)” value was “no observed effect”. Further, the “association of VE-cadherin and p120-catenin after IL-1β” value in assay [4] was “restores”. Moreover, in the assay on VE-cadherin, the “internalization of VE-cadherin induced by IL-1β” value is “blocks”. The “neutrophil migration to fMLP” value with primary human PMNs was “did not respond”. In the assay on HMVEC-lung [5], the “IL-1β decrease of p120-catenin at the cell surface” value was “reversed this effect” and the “IL-1β reduction of VE-cadherin levels at the cell surface” value is given as “negated this effect”. Moreover, the “Bleomycin-induced pulmonary fibrosis (Sircol collagen)” value with BL/6 mice (Robo4+/+ mice, day 11, 5 μg daily i.p.) is recorded as “significantly reduced”. In addition, in the assay with BL/6 mice (Robo4+/+ mice, eleven days after Bleomycin, 5 μg daily i.p.), the “Bleomycin-induced EBA accumulation in the lung” value is listed as “significantly reduced”. Further, in the assay on BL/6 mice (Robo4-dependent manner), the “histologic examination of the lung, trichrome stain (collagen deposition)” value was “confirmed the effect”. For the same molecule, in the assay with BL/6 mice (Robo4AP/AP mice), the “effect on Bleomycin-induced EBA accumulation in the lung, Robo4-null mice” value was “lost” and the “effect on Bleomycin-induced pulmonary fibrosis, Robo4-null mice” value was “lost”. Moreover, in the assay with C57BL/6 mice [6] (mouse, in vivo, ip), the “survival of mice exposed to CLP-induced sepsis” value is recorded as ~80%. Moreover, the “expression of a panel of cytokines and chemokines in plasma” value in the assay on C57BL/6 mice [6] (six hours after CLP) is “did not alter”.
